Test results reported in US20250122271A1, “ANTI-DKK1 ANTIBODY, PHARMACEUTICAL COMPOSITION THEREOF, AND USE THEREOF” (SHANGHAI JUNSHI BIOSCIENCES CO., LTD., priority 2022, published 2025).
Changes are numbered by the printed parent chain. Where two headings read alike, the source gives them in different places. One block for each binder: values may come before it.

Experiments:
[1] = molecular target: T1, human DKK1 antigen (Sino Biological, 10170-H08H) (human, UniProt O94907 32-266); assay: ELISA blocking of DKK1-LRP6
T1 chain: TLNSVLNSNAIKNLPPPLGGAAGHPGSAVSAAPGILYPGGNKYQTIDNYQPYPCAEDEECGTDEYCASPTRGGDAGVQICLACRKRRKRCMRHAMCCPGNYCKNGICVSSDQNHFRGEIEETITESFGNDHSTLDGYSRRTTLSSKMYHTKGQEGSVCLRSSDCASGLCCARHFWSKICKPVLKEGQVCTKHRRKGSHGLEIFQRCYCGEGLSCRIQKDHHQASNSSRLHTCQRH

[2] = molecular target: T2, human DKK1 antigen (Sino Biological, 10170-H08H) (human, UniProt O94907 32-266); assay: competitive ELISA against LRP6 for DKK1
T2 construct: also called huDKK1; hDKK1
T2 sequence (looked up): T1 chain

[3] = molecular target: T1, human DKK1 antigen (Sino Biological, …); assay: ELISA blocking of DKK1-LRP6
[4] = molecular target: T1, human DKK1 antigen (Sino Biological, …); assay: ELISA binding
[5] = molecular target: T1, human DKK1 antigen (Sino Biological, …); assay: ELISA blocking of DKK1-LRP6

B2: hybridoma antibody 11I18.4 (antibody, V domains shown)
VH: EVQLQQSGPELVKPGASVKIFCKTSGYTFTENTMHWVKQTHGKSLEWIGGINPHKGGTSYNQKFKGKATLTVDKSSSTACMELRSLTSEDSTVYYCARDWLGAMDYWGQGTSVTVSP
VL: ETTVTQSPASLSMAIGEKVTIRCITSTDIDDDMNWYQQKPGEPPKLLISEGNTLRPGVPSRFSSSGYGTDFVFTIENMLSEDVADYYCLQSDNLPYTFGGGTKLEIK
notes: Murine hybridoma antibody
- binding result [2]: binds
- IC50 [3]: 0.459 µg/mL

B3: chi-2 (antibody, V domains shown)
VH: B2 VH
VL: MSSAQFLGLLLLCFQGTRCDIQMTQTTSSLSASLGDRVTINCRASQDISNYLNWYQQKPDGTVKLLIYYKSRLHSGVPTRFSGSGSGTDFSLTISNLVQEDIATYFCQQVHTLPPTFGGGTKLEIK
- IC50 [1]: 1.79 µg/mL

B6: hybridoma antibody 17F14.3 (antibody, V domains shown)
VH: QVQLQQPGAELVKPGASVKMSCKASGYTFTSYNMLWVKQTPGQGLEWIGVIFPGNGDTSYNPKFKGKAALTADKSSSTAYMQLSSLTSEDSAVYYCARDGYPSMDYWGQGTSVTVSS
VL: ETIVTQSPASLSVATGEKVTIRCITSTDIDDDMNWYQQKPGEPPKLLISEGNSLRPGVPSRFSSSGYGTDFVFTIENTLSEDVADYYCLQFNNMPLTFGAGTKLELK
notes: Murine hybridoma antibody
- binding result [2]: binds
- IC50 [3]: 0.529 µg/mL

B10: chi-22 (antibody, V domains shown)
VH: QVTLKESGPGILQPSQTLSLTCSFSGFSLSTSGMGVGWIRQPSGKGLEWLAHIWWDDVKRYNPALKSRLTISKDTSSSQVFLKIASVDTTDTASYYCSRIARSPTGFAYWGQGTL
VL: QIVLTQSPVIMSASPGEKVTMTCSASSSVSYMYWYQQKPGSSPRLLIYDTSNLASGVPVRFSGSGSGTSYSLTISRMEAEDAATYYCQQWSSYPPALTFGAGTKLELK
- IC50 [1]: ~0.246 µg/mL

B11: BHQ-880 (antibody, V domains shown)
VH: QVQLVESGGGLVQPGGSLRLSCAASGFTFSSYWMSWVRQAPGKGLEWVSGISYSGSNTHYADSVKGRFTISRDNSKNTLYLQMNSLRAEDTAVYYCARMGIDLDYWGQGTLVTVSS
VL: DIALTQPASVSGSPGQSITISCTGTSSDVGGFNYVSWYQQHPGKAPKLMIHDGSNRPSGVSNRFSGSKSGNTASLTISGLQAEDEADYYCQSWDVSPITAVFGGGTKLTVLG
- IC50 [3]: 1.1 µg/mL

B12: hybridoma antibody 19O15.6 (antibody, V domains shown)
VH: QIQLVQSGPELKKPGETVKISCKASGYTFTNHGMNWVKQAPGKGLKWMGWINTNTGEPTYADDFKGRFAFSLETSASTAYLQINNLKNEDTATYFCARRGYGFPYYYTMDYWGQGTSVTVSS
VL: QAVVTQESALTTSPGETVTLTCRSSTGAVTTRNYANWVQEKADHLLTGLIGGTKNRAPGVPARFSGSLIGDKAALTITGAQTEDEAKYFCALWYSNRLVFGGGTKLTVL
notes: Murine hybridoma antibody
- binding result [2]: binds
- IC50 [3]: ~10.1 µg/mL

B13: hybridoma antibody 18J21.1 (antibody, V domains shown)
VH: QVQLKQSGPGLVQPSQSLSITCTVSGFSLTAFDVHWVRQSPGKGLEWLGVIWIGGTTDYNGAFISRLSISKDNSKSQVFFKMNSLQAKDTAIYYCARKRGNYYNMDYWGQGTSVTVAS
VL: B12 VL with A28T, R32T, A42P, L46F, K54N, K87I, R97H, L98W
notes: Murine hybridoma antibody
- binding result [2]: binds

B14: hybridoma antibody 7M2.6 (antibody, V domains shown)
VH: EVQLQQSGPELVKPGASVRISCKTSGYTFTEYTMHWVKQSHGKSLEWIGVIDPSNGDTSYNQKFKGRATLTVDKSSSTAYMDLRSLTSEDSALYYCSSTTGPWFACWGQGTLVTVSA
VL: DIQMTQTTSSLSASLGDRVTINCRASQDISNYLNWYQQKPDGTVKLLIYYKSRLHSGVPTRFSGSGSGTDFSLTISNLVQEDIATYFCQQVHTLPPTFGGGTKLEIK
notes: Murine hybridoma antibody
- binding result [2]: binds
- IC50 [3]: 0.892 µg/mL

Now from value to binder:

- IC50 [1]: 1.43 µg/mL
B1: chi-29 (antibody, V domains shown)
VH: B13 VH
VL: SQAVVTQESALTTSPGETVTLTCRSSTGTVTTTNYANWVQEKPDHLFTGLIGGTNNRAPGVPARFSGSLIGDKAALTITGAQTEDEAIYFCALWYSNHWVFGGGTKLTVL

- EC50 [4]: 0.01 µg/mL
- IC50 [5]: 0.193 µg/mL
B4: humanized antibody hu2 (antibody, V domains shown)
VH: EVQLLQSAAEVKRPGESLRISCKTSGYTFTEYTMHWVRQMPGKELEWMGVIDPSNGDTSYNQKFKGHVTISADKSSSTAYLQWSSLKASDAAMYYCSSTTGPWFASWGQGTLVTVSS
VL: DIQMTQSPSSLSASVGDRVTITCRASQDISNYLNWYQQKPGKAPKLLIYYKSRLHSGVPSRFSGSGSGTDFTLTISSLQPEDFATYYCQQVHTLPPTFGQGTKLEIKR

- EC50 [4]: 0.0138 µg/mL
- IC50 [5]: 0.169 µg/mL
B5: humanized antibody hu3 (antibody, V domains shown)
VH: B4 VH
VL: EIVMTQSPPTLSLSPGERVTLSCRASQDISNYLNWYQQKPGQAPRLLIYYKSRLHSGIPARFSGSGSGTDFTLTISSLQPEDFAVYYCQQVHTLPPTFGQGTKLEIKR

- EC50 [4]: 0.0222 µg/mL
- IC50 [5]: 0.176 µg/mL
B7: humanized antibody hu64 (antibody, V domains shown)
VH: QVQLVQSGAEVKKPGSSVKVSCKASGYTFTSYNMLWVRQAPGQGLEWMGVIFPGNGDTSYNPKFKGRVTLTADKSSSTAYMELSSLRSEDTAVYYCARDGYPSMDYWGQGTLVTVSS
VL: DTQLTQSPSFLSASVGDRVTITCITSTDIDDDMNWYQQKPGKAPKLLISEGNSLRPGVPSRFSSSGSGTEFTLTISSLQPEDFATYYCLQFNNMPLTFGQGTKLEIKR

- EC50 [4]: 0.0238 µg/mL
- IC50 [5]: 0.155 µg/mL
B8: humanized antibody hu52 (antibody, V domains shown)
VH: B7 VH with S16A, G44R
VL: B7 VL

- EC50 [4]: 0.0234 µg/mL
- IC50 [5]: 0.239 µg/mL
B9: humanized antibody hu50 (antibody, V domains shown)
VH: B7 VH with S16A, G44R
VL: B7 VL with T2I, L4M, F10S, L11V, S64G, E70D
